Results from US10940182B2, “Use of modified vasoactive intestinal peptides in the treatment of hypertension” (PhaseBio Pharmaceuticals, Inc., priority 2011, dated 2021).
Blank lines part the entries; values can stand above or below the molecule they belong to.

Columns and labels:
[1] = biological target: T1, human Vasoactive Intestinal Peptide Receptor 2 (VPAC2) (Homo sapiens, UniProt P41587); test: cAMP cell-based bioassay, CHO cells expressing VPAC2; settings: for in vitro activity for VPAC2 receptor compared with native VIP: cAMP, CHO cells expressing VPAC2, 30 minute incubation, FIG. 6, PB1047 DPP-IV treated
T1 construct: expressed in transfected cells; host or cells: Chinese Hamster Ovary (CHO) cells
T1 sequence (P41587 24-438): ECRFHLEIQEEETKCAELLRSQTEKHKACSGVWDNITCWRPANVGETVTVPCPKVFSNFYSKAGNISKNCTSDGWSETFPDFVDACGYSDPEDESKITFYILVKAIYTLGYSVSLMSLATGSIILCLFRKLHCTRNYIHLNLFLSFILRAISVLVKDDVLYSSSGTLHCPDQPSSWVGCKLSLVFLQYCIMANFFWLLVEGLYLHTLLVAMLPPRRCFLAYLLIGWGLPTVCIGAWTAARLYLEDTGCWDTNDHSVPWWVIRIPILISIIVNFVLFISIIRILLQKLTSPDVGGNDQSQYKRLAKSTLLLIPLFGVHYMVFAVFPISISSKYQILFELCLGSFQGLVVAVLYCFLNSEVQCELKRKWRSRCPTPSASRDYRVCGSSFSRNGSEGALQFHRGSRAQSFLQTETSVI
Protocol: (§1) Since the amount of cAMP accumulation in cells after receptor-mediated ligand binding and activation is directly proportional to the amount of intact peptide or fusion protein present, the assay can be used to determine bioactivity and relative potency.
In this example, the activity of VIP-ELP fusion proteins PB1046 and PB1047 was tested. […] Both constructs have ELP(1-120) at their C-terminus. […] After 30 minute incubations of various concentrations of the fusion proteins with the cell, the cells were lysed and the amount of cAMP produced was measured using a commercial kit. PB1047 was DPP-IV treated prior to the addition to the cells.
FIG. 11 illustrates the activity of PB1120 for the VPAC2 receptor. […] However, in contrast to the results seen with VPAC1, PB1046 was equipotent for VPAC2 as compared to the native peptide.

[2] = biological target: T2, human Vasoactive Intestinal Peptide Receptor 1 (VPAC1) (Homo sapiens, UniProt P32241); test: cAMP cell-based bioassay, CHO cells expressing VPAC1; settings: for in vitro activity for VPAC1 receptor compared with native VIP: cAMP, CHO cells expressing VPAC1, 30 minute incubation, FIG. 7, PB1047 DPP-IV treated
T2 construct: expressed in transfected cells; host or cells: Chinese Hamster Ovary (CHO) cells
T2 sequence (P32241 31-457): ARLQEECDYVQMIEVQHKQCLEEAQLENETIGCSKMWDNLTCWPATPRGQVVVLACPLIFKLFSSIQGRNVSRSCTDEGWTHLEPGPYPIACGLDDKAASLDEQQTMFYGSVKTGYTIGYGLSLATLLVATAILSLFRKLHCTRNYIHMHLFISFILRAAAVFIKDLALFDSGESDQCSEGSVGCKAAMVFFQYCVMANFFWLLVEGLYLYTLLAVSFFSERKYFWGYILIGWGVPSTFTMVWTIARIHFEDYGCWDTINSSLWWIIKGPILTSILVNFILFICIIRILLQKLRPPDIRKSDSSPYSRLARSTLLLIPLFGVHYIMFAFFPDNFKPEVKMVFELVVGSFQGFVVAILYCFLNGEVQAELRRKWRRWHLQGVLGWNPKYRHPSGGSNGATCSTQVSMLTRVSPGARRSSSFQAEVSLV
Protocol: as §1
After 30 minute incubations of various concentrations of the fusion proteins with CHO cells, cells were lysed and the amount of cAMP produced was measured using a commercial kit. PB1047 was DPP-IV treated prior to the addition to the cells.
The activity of the PB1120 fusion peptide was tested in vitro.

[3] = test system: Spontaneously hypertensive rats; test: Blood pressure effect of PB1047 in spontaneously hypertensive rats; format: in vivo, rat; settings: 10 mg/kg subcutaneous, vs buffer control, FIG. 8
Protocol: The activity of the modified VIP-ELP fusion protein PB1047 was also tested in vivo. Specifically, effects of VIP-ELP fusion protein on blood pressure were tested. Spontaneously hypertensive rats were treated subcutaneous with PB1047 (10 mg/kg) or buffer control and their blood pressures were measured at several points after administration of the fusion protein. Five animals were used for each group and the graphs show the average and the standard deviation.

[4] = test system: conscious spontaneously hypertensive rats (SHR); test: Telemetric blood pressure and heart rate in conscious SHR, single SQ dose, with and without atenolol (Example 7); format: in vivo, rat; settings: for heart rate: +2 hr
Protocol: Here, the effects of PB 1046 (Vasomera™) when given as a single-dose SQ bolus to conscious spontaneously hypertensive rats (SHR) was tested.
SHR rats (351±4 g, n=8) were instrumented for telemetric blood pressure and ECG monitoring. Via a Latin-Square design, the effects of Vasomera (1, 3, and 9 mg/kg SQ) as well as of vehicle (VEH, SQ) were evaluated. Finally, Vasomera™ (9 mg/kg SQ) was assayed during concomitant β-adrenergic receptor blockade (BB, atenolol 20 mg/kg/day PO). Changes in mean arterial pressure (MAP) and heart rate (HR) were measured.

[5] = test system: conscious spontaneously hypertensive rats (SHR); test: Telemetric blood pressure and heart rate in conscious SHR pretreated with anti-hypertensives (Example 8); format: in vivo, rat; settings: 9 mg/kg SQ
Protocol: The hemodynamic effects of Vasomera™ when given as a single-dose SQ bolus to conscious spontaneously hypertensive rats (SHR) pretreated with three common anti-hypertensives were tested.
SHR rats (351±4 g, n=8) were instrumented for telemetric BP and ECG monitoring. First, both Vasomera™ (9 mg [177 nmol]/kg, SQ) and placebo (VEH) were assayed in untreated animals. Then, the effects of Vasomera™ were tested during concomitant oral β-adrenergic receptor blockade (+BB, atenolol 20 mg/kg/day), calcium-channel blockade (+CCB, amlodipine 5 mg/kg/day) and ACE-inhibition (+ACE, ramipril 1 mg/kg/day). Mean arterial pressure (MAP) and heart rate (HR) were measured/averaged over 24 hours both pre- and post-dosing.

[6] = under β-adrenergic receptor blockade (atenolol 20 mg/kg/day)
[7] = untreated rats, averaged over 24 hours

in vitro activity for VPAC2 receptor compared with native VIP [1]: less active
B1: PB1047: VIP-ELP fusion protein with tripeptide MAA at the N-terminus (Met removed to leave AA), ELP1-120 at C-terminus (SEQ ID NO: 15) (protein)
chain: MAAHSDAVFTDNYTRLRKQMAVKKYLNSILNVPGVGVPGVGVPGGGVPGAGVPGVGVPGVGVPGVGVPGGGVPGAGVPGGGVPGVGVPGVGVPGGGVPGAGVPGVGVPGVGVPGVGVPGGGVPGAGVPGGGVPGVGVPGVGVPGGGVPGAGVPGVGVPGVGVPGVGVPGGGVPGAGVPGGGVPGVGVPGVGVPGGGVPGAGVPGVGVPGVGVPGVGVPGGGVPGAGVPGGGVPGVGVPGVGVPGGGVPGAGVPGVGVPGVGVPGVGVPGGGVPGAGVPGGGVPGVGVPGVGVPGGGVPGAGVPGVGVPGVGVPGVGVPGGGVPGAGVPGGGVPGVGVPGVGVPGGGVPGAGVPGVGVPGVGVPGVGVPGGGVPGAGVPGGGVPGVGVPGVGVPGGGVPGAGVPGVGVPGVGVPGVGVPGGGVPGAGVPGGGVPGVGVPGVGVPGGGVPGAGVPGVGVPGVGVPGVGVPGGGVPGAGVPGGGVPGVGVPGVGVPGGGVPGAGVPGVGVPGVGVPGVGVPGGGVPGAGVPGGGVPGVGVPGVGVPGGGVPGAGVPGVGVPGVGVPGVGVPGGGVPGAGVPGGGVPGVGVPGVGVPGGGVPGAGVPGVGVPGVGVPGVGVPGGGVPGAGVPGGGVPGWP
modifications: MAA-VIP ELP1-120
in vitro activity for VPAC1 receptor compared with native VIP [2]: about the same as it was in the test for VPAC2 receptor | diastolic blood pressure [3]: significantly reduced | systolic blood pressure [3]: significantly reduced

potency for VPAC2 as compared to the native peptide ([1]; FIG. 11): equipotent | fold less active than the native VIP peptide on the VPAC1 receptor ([2]; FIG. 10): approximately 11 fold | in vitro activity for VPAC1 receptor compared with native VIP [2]: much less active than native VIP protein
B2: PB1046: VIP-ELP fusion protein: VIP with Met at the N-terminus and ELP1-120 fused at the C-terminus (SEQ ID NO: 14) (protein)
chain: MHSDAVFTDNYTRLRKQMAVKKYLNSILNVPGVGVPGVGVPGGGVPGAGVPGVGVPGVGVPGVGVPGGGVPGAGVPGGGVPGVGVPGVGVPGGGVPGAGVPGVGVPGVGVPGVGVPGGGVPGAGVPGGGVPGVGVPGVGVPGGGVPGAGVPGVGVPGVGVPGVGVPGGGVPGAGVPGGGVPGVGVPGVGVPGGGVPGAGVPGVGVPGVGVPGVGVPGGGVPGAGVPGGGVPGVGVPGVGVPGGGVPGAGVPGVGVPGVGVPGVGVPGGGVPGAGVPGGGVPGVGVPGVGVPGGGVPGAGVPGVGVPGVGVPGVGVPGGGVPGAGVPGGGVPGVGVPGVGVPGGGVPGAGVPGVGVPGVGVPGVGVPGGGVPGAGVPGGGVPGVGVPGVGVPGGGVPGAGVPGVGVPGVGVPGVGVPGGGVPGAGVPGGGVPGVGVPGVGVPGGGVPGAGVPGVGVPGVGVPGVGVPGGGVPGAGVPGGGVPGVGVPGVGVPGGGVPGAGVPGVGVPGVGVPGVGVPGGGVPGAGVPGGGVPGVGVPGVGVPGGGVPGAGVPGVGVPGVGVPGVGVPGGGVPGAGVPGGGVPGVGVPGVGVPGGGVPGAGVPGVGVPGVGVPGVGVPGGGVPGAGVPGGGVPGWP
modifications: M-VIP ELP1-120
selectivity for VPAC2 receptor over VPAC1 receptor ([1]; cAMP assays, FIG. 6 and 7): selectively activates VPAC2 receptor over VPAC1 receptor | in vitro activity for VPAC2 receptor compared with native VIP [1]: somewhat more active than native VIP protein | lowering of MAP vs VEH ([4]; 9 mg/kg (177 nmol/kg) SQ, +6 hr): 16±3% | heart rate ([4]; 9 mg/kg SQ with β-adrenergic receptor blockade (atenolol 20 mg/kg/day PO)): 308±3 bpm | MAP ([4]; 9 mg/kg SQ with β-adrenergic receptor blockade (atenolol 20 mg/kg/day PO), +6 hr): 131±3 mmHg | heart rate ([4]; 9 mg/kg SQ): 370±15 bpm | MAP ([4]; 9 mg/kg SQ, +6 hr): 154±5 mmHg | duration of dose-dependent decreases in blood pressure post-dosing ([4]; 1, 3, 9 mg/kg SQ, FIG. 14A): up to 12 hours | adverse clinical effects ([4]; SHR, 1-9 mg/kg SQ, with or without atenolol): No adverse clinical effects were noted | duration of decreases in blood pressure post-dosing ([5]; FIG. 15A): up to 12 hours | change in MAP ([5]; rats pre-treated with amlodipine 5 mg/kg/day oral): −13±2% | change in MAP ([5]; rats pre-treated with atenolol 20 mg/kg/day oral): −14±1% | change in MAP ([5]; rats pre-treated with ramipril 1 mg/kg/day oral): −9±2% | change in heart rate [5, 6]: +6±1% | heart rate post-dosing [5, 6]: 294±2 bpm | MAP post-dosing [5, 7]: 171±5 mmHg | change in heart rate [5, 7]: +8±1% | heart rate post-dosing [5, 7]: 384±8 bpm | lowering of MAP, post- vs pre-dosing [5, 7]: 9±1% | chronotropy under co-treatment ([5]; with amlodipine 5 mg/kg/day): unaffected | chronotropy under co-treatment ([5]; with ramipril 1 mg/kg/day): unaffected | adverse clinical effects ([5]; SHR, with or without anti-hypertensives): no adverse clinical effects were noted
